Data reported in article PMC4652764, “The La-related protein 1-specific domain repurposes HEAT-like repeats to directly bind a 5′TOP sequence”.

Assays:
LARP1 DM15 region [1] = biological target: T1, LARP1 DM15 region (human, UniProt Q6PKG0 873-1023); assay: EMSA; up to 30 uM protein; EMSA: 20 mM Tris-HCl pH 8, 150 mM NaCl, 10% glycerol, 1 mM DTT, 0.5 ug tRNA, 1 ug BSA, <2 nM RNA, 30 min on ice, native 0.5x TBE gel at 4 C; conditions: protein: recombinant; tags: His6-MBP removed by TEV; glycine linker remnant; label: 5'-32P
LARP1 DM15 region [2] = biological target: T1, LARP1 DM15 region; assay: EMSA; EMSA: 20 mM Tris-HCl pH 8, 150 mM NaCl, 10% glycerol, 1 mM DTT, 0.5 ug tRNA, 1 ug BSA, <2 nM RNA, 30 min on ice, native 0.5x TBE gel at 4 C; conditions: protein: recombinant; tags: His6-MBP removed by TEV; glycine linker remnant; label: 5'-32P
LARP1 DM15 region [3] = biological target: T1, LARP1 DM15 region; assay: EMSA; no specific binding; EMSA: 20 mM Tris-HCl pH 8, 150 mM NaCl, 10% glycerol, 1 mM DTT, 0.5 ug tRNA, 1 ug BSA, <2 nM RNA, 30 min on ice, native 0.5x TBE gel at 4 C; conditions: protein: recombinant; tags: His6-MBP removed by TEV; glycine linker remnant; label: 5'-32P
LARP1 DM15 region [4] = biological target: T1, LARP1 DM15 region; assay: EMSA; two concentration-dependent complexes; EMSA: 20 mM Tris-HCl pH 8, 150 mM NaCl, 10% glycerol, 1 mM DTT, 0.5 ug tRNA, 1 ug BSA, <2 nM RNA, 30 min on ice, native 0.5x TBE gel at 4 C; conditions: protein: recombinant; tags: His6-MBP removed by TEV; glycine linker remnant; label: 5'-32P
LARP1 DM15 region [5] = biological target: T1, LARP1 DM15 region; assay: EMSA; tRNA and BSA competitors; ~500 nM when corrected for active protein; EMSA: 20 mM Tris-HCl pH 8, 150 mM NaCl, 10% glycerol, 1 mM DTT, 0.5 ug tRNA, 1 ug BSA, <2 nM RNA, 30 min on ice, native 0.5x TBE gel at 4 C; conditions: protein: recombinant; tags: His6-MBP removed by TEV; glycine linker remnant; label: 5'-32P (EMSA, probing)

GUGGCGCCUCGGAGGCGUUCAGCUGCUUCAAG (ssRNA) [RPS6 deltaTOP]: no binding (LARP1 DM15 region [1]).

CACUUCUGCCGCCCCU (ssRNA) [RPL13A 5'TOP 16mer]: no binding (LARP1 DM15 region [2]).

UUUUUUUUUUUUUUUU (ssRNA) [U16]: no binding (LARP1 DM15 region [3]).

CCUCUUUUCCGUGGCGCCUCGGAGGCGUUCAGCUGCUUCAAG (ssRNA) [RPS6-42mer]: binds (LARP1 DM15 region [4]).

CCUCUUUUCCG (ssRNA) [RPS6 first 11 nt]: no binding (LARP1 DM15 region [2]).

CCCCUUCUCCCCGGCGGUUA (ssRNA) [PABPC1 5'TOP 20mer]: no binding (LARP1 DM15 region [2]).

CCUCUUUU (ssRNA) [RPS6 first 8 nt]: no binding (LARP1 DM15 region [2]).

AAAAAAAAAAAAAAAA (ssRNA) [A16]: no binding (LARP1 DM15 region [3]).

For CCUCUUUUCCGUGGCGCCUC (ssRNA) [RPS6-20mer], the Kd (LARP1 DM15 region [5]) was 776 ± 26 nM.
